{
  "source": "paper PMC5910026",
  "about": "(Biochemistry, 2018)",
  "proteins": {"B1": {"name": "MxiN (recombinant, from pET15b) (natural protein)", "chain": "MKVCNMQKGTLPVSRHHAYDGVVIKRIEKELCKTIKDRDTESKKKAICVIKDATKKAESLRIDAVCDGYQIGIQTAFEHIIDYICEWKLKQNENRRNIEDYITSLLSENLHDERIISTLLEQWLSSLRNTVTELKVVLPKCNLALRKKLELDLHKYRSDVKIILKYSEGNNYIFCSGNQVVEFSPQDVISGVKIELAEKLTKNDKKYFKELAHKKLRQIAEDLLKENPVND"}},
  "molecular_target": "the molecule itself",
  "assay": "AUC",
  "data": [
    {"protein": "B1", "values": [
      {"measurement": "stoichiometry N", "value": 2}
    ]}
  ]
}
